Source: patent US20190177434A1 (published 2019)

B1: IgG-Fc-01 (VHH)
VHH: QVQLQESGGGLVQPGGSLRLSCAASGGTSIRIGSINALAWYRQALGNQRELVAAVTEGGSTNYADFVKGRFTISRDNAQNMMYLQMNSLKPEDTAVYYCNADKVLYSRGGYYSVANDLWGQGTQVTVSS
notes: also called IgG-Fc-1
B2: IgG-Fc-10 (VHH)
VHH: QVQLQESGGGLVQAGDSLRISCRASGLTVNDLYMGWFRQAPGKEREFVGRVTPGDNTDYTYYVDSVKGRFTISRDSAKNTVYLQMNSLKLEDTAVYLCAGRRFGSSEWDYWGQGTQVTVSS
B3: IgG-Fc-16 (VHH)
VHH: QVQLQESGGGLVQAGGSLRLSCAASGRAVGNYIIGWFRQAPGKEREFVATTTRDGGSTFYADSVKGRFTISRDNAKNTVNLQMNSLEPEDTAVYYCAAKSWSVPLRPTSADFDSWGQGTQVTVSS

Key:
Human IgG1 [1] = target: T1, Human IgG1 (human, UniProt P01857-1 1-330 = IgG part); assay: SPR, VHH immobilised, IgG as analyte, 1:1 Langmuir
T1 construct: purified IgG of this subclass; also called HuIgG1
Procedure: (§1) Binding affinity constants of anti IgG-Fc VHH fragments were determined using surface plasmon resonance analysis (SPR) on a BiaCore 3000. For this purpose, purified VHH fragments were immobilised onto the surface of a CM5 sensor chip and subsequently incubated with different concentrations of purified IgG antibodies in HBS-EP buffer. Binding was allowed for 3 minutes at 30 μl/min followed by a dissociation step of 15 minutes at 30 μl/min. Binding curves were fitted according to a 1:1 Langmuir binding model using Biacore software.

Human IgG2 [2] = target: T2, Human IgG2 (human, UniProt P01859-1 1-326 = IgG part); assay: SPR, VHH immobilised, IgG as analyte, 1:1 Langmuir
T2 construct: purified IgG of this subclass; also called HuIgG2
Procedure: as §1

Human IgG3 [3] = target: T3, Human IgG3 (human, UniProt P01860-1 1-377); assay: SPR, VHH immobilised, IgG as analyte, 1:1 Langmuir
T3 construct: purified IgG of this subclass; also called HuIgG3
Procedure: as §1

Human IgG4 [4] = target: T4, Human IgG4 (human, UniProt P01861-1 1-327 = IgG part); assay: SPR, VHH immobilised, IgG as analyte, 1:1 Langmuir
T4 construct: purified IgG of this subclass; also called HuIgG4
Procedure: as §1

Human IgG, Fc fragment = target: T5, Human IgG, Fc fragment (human); assay: method not given
T5 construct: domain: Fc; the ELISA plates were coated with 'antibody antigens', so whole IgG may have stood there; also called human IgG-Fc domain; IgG Fc domain species: human

Human IgG1 [5] = target: T1, Human IgG1; assay: SPR, IgG-Fc-16 immobilised, IgG 50 µg/ml
Procedure: (§2) Broad binding reactivity of VHH fragment IgG-Fc-16 was determined using surface plasmon resonance analysis (SPR) on a BiaCore 3000. For this purpose, purified VHH fragment IgG-Fc-16 was immobilised onto the surface of a CM5 sensor chip and subsequently incubated with purified IgG antibodies (50 μg/ml) from different species in HBS-EP buffer. Binding was allowed for 1 minute at 5 μl/min followed by a dissociation step of 2.5 minutes at 5 μl/min. Binding signals (Resonance Units) were compared to background signals measured with HBS-EP buffer only. For comparison, the relative reactivity of Protein A and G towards different IgG species is also given.

Human IgG2 [6] = target: T2, Human IgG2; assay: SPR, IgG-Fc-16 immobilised, IgG 50 µg/ml
Procedure: as §2

Human IgG3 [7] = target: T3, Human IgG3; assay: SPR, IgG-Fc-16 immobilised, IgG 50 µg/ml
Procedure: as §2

Human IgG4 [8] = target: T4, Human IgG4; assay: SPR, IgG-Fc-16 immobilised, IgG 50 µg/ml
Procedure: as §2

Rat IgG1a = target: T6, Rat IgG1a (rat, UniProt P20759 1-326); assay: SPR, IgG-Fc-16 immobilised, IgG 50 µg/ml
T6 construct: label 'IgG1a' as printed
Procedure: as §2

Rat IgG2a = Rat IgG2a (rat, UniProt P20760 1-322); assay: SPR, IgG-Fc-16 immobilised, IgG 50 µg/ml
Procedure: as §2

Rat IgG2b = Rat IgG2b (rat, UniProt P20761 1-333); assay: SPR, IgG-Fc-16 immobilised, IgG 50 µg/ml
Procedure: as §2

Rat IgG2c = Rat IgG2c (rat, UniProt P20762 1-329); assay: SPR, IgG-Fc-16 immobilised, IgG 50 µg/ml
Procedure: as §2

Mouse IgG 1 = Mouse IgG 1 (mouse, UniProt P01868 1-324 = IgG part); assay: SPR, IgG-Fc-16 immobilised, IgG 50 µg/ml
Procedure: as §2

Mouse IgG2a = Mouse IgG2a (mouse, UniProt P01863 1-330 = IgG part); assay: SPR, IgG-Fc-16 immobilised, IgG 50 µg/ml
Procedure: as §2

Guinea IgG = target: T7, Guinea IgG (guinea pig); assay: SPR, IgG-Fc-16 immobilised, IgG 50 µg/ml
T7 construct: printed 'Guinea IgG'; also called guinea pig IgG
Procedure: as §2

Chicken IgG = Chicken IgG (chicken); assay: SPR, IgG-Fc-16 immobilised, IgG 50 µg/ml
Procedure: as §2

T4 sequence (P01861 other isoform, or with tags, fused parts or gaps): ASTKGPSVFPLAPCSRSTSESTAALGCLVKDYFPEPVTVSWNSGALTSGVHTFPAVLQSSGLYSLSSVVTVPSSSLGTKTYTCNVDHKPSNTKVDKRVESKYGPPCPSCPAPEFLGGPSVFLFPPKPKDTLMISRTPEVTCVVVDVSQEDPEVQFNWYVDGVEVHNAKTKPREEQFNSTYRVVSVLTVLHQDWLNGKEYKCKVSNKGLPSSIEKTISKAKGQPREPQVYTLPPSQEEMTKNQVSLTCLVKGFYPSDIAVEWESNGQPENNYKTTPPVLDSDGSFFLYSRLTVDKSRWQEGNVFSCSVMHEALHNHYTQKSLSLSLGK
T1 sequence (P01857 other isoform, or with tags, fused parts or gaps): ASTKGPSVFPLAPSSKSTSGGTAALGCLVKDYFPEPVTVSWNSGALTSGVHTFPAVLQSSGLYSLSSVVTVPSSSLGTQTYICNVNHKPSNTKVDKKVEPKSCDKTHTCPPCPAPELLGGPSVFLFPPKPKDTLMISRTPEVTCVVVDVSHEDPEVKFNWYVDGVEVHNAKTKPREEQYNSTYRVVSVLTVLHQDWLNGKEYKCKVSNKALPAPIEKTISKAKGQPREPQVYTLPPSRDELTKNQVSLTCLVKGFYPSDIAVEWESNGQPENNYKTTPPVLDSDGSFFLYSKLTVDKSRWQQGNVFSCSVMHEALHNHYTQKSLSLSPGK
T2 sequence (P01859 other isoform, or with tags, fused parts or gaps): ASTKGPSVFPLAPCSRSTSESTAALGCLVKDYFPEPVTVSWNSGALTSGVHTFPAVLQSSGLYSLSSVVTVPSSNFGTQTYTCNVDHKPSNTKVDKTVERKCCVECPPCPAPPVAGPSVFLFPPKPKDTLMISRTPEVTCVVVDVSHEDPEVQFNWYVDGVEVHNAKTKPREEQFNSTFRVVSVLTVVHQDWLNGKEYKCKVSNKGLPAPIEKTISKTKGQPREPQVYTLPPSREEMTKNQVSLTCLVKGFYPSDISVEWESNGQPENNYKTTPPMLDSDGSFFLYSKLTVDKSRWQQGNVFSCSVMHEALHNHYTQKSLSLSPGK
T3 sequence (P01860 other isoform, or with tags, fused parts or gaps): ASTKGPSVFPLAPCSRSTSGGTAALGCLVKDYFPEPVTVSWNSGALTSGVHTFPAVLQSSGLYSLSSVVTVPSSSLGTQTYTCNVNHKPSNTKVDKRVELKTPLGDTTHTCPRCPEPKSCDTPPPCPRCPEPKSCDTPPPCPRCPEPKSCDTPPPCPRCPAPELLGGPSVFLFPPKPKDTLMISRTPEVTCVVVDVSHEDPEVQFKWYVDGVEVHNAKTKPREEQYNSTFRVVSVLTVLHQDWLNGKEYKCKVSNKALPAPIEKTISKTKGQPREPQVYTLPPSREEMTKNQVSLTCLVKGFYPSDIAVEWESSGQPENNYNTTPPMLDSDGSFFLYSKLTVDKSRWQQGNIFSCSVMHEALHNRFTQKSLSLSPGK
Mouse IgG2a, sequence (P01863 whole entry): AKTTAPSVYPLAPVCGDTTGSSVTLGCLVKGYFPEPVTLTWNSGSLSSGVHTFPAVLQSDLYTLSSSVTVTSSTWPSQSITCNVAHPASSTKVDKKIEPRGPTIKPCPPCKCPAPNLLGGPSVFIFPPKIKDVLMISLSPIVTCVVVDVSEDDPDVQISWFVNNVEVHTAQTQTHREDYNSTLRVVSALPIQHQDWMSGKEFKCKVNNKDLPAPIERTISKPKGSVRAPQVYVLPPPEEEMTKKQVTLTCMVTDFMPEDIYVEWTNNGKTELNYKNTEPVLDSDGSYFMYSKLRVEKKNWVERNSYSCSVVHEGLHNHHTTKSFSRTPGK
Rat IgG2a, sequence (P20760 whole entry): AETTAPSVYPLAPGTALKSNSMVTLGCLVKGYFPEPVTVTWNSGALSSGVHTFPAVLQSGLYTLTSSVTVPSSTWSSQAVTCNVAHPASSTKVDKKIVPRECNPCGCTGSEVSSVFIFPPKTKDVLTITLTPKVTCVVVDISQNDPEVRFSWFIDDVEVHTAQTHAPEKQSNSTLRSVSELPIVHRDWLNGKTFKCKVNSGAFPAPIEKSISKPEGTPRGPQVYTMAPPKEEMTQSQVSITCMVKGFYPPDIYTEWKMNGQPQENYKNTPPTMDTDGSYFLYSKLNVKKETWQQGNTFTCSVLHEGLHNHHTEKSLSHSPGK
Rat IgG2c, sequence (P20762 whole entry): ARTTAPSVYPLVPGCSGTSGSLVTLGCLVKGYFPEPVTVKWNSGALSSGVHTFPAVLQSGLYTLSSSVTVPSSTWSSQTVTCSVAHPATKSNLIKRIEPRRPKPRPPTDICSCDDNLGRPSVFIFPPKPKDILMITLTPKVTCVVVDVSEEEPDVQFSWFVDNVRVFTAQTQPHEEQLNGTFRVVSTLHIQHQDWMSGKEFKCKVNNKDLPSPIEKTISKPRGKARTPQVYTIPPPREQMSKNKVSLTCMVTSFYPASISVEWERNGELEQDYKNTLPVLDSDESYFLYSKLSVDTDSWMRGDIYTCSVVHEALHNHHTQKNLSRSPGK
T6 sequence (P20759 whole entry): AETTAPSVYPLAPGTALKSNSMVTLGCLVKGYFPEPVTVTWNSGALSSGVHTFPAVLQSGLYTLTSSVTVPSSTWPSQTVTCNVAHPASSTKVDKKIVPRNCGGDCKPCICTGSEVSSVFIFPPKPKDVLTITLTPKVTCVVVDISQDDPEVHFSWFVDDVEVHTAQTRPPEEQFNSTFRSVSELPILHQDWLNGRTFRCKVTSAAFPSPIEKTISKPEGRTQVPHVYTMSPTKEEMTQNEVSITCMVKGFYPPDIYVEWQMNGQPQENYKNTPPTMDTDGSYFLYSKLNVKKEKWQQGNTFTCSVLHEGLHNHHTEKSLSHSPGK
Rat IgG2b, sequence (P20761 whole entry): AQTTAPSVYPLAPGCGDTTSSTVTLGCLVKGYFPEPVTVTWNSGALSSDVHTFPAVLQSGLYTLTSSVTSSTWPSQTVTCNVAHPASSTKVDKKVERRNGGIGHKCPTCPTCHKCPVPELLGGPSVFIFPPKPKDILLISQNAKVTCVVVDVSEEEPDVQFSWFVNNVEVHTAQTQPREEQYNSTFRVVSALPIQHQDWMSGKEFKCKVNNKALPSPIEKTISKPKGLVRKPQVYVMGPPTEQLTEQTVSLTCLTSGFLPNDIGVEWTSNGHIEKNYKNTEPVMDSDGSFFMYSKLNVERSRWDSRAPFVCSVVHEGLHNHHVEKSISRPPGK

Row | Ka (Human IgG1 [1]) | Kd (Human IgG1 [1]) | koff (Human IgG1 [1]) | kon (Human IgG1 [1]) | Ka (Human IgG2 [2]) | Kd (Human IgG2 [2]) | koff (Human IgG2 [2]) | kon (Human IgG2 [2]) | Ka (Human IgG3 [3]) | Kd (Human IgG3 [3]) | koff (Human IgG3 [3]) | kon (Human IgG3 [3]) | Ka (Human IgG4 [4]) | Kd (Human IgG4 [4]) | koff (Human IgG4 [4]) | kon (Human IgG4 [4]) | other results | Binder
1 | 1.74e+09 M⁻¹ | 0.575 nM | 0.000208 s⁻¹ | 361000 M⁻¹ s⁻¹ | 5.76e+08 M⁻¹ | 1.73 nM | 0.000212 s⁻¹ | 122000 M⁻¹ s⁻¹ | 2.09e+07 M⁻¹ | 47.8 nM | 0.000272 s⁻¹ | 5690 M⁻¹ s⁻¹ | 3.32e+09 M⁻¹ | 0.302 nM | 5.91e-05 s⁻¹ | 196000 M⁻¹ s⁻¹ | – | B1
2 | – | – | – | – | – | – | – | – | – | – | – | – | – | – | – | – | Ka (Human IgG, Fc fragment): ≥ 4e+09 M⁻¹ | B2
3 | 1.47e+08 M⁻¹ | 6.81 nM | 0.000211 s⁻¹ | 31000 M⁻¹ s⁻¹ | 6.17e+07 M⁻¹ | 16.2 nM | 0.000355 s⁻¹ | 21900 M⁻¹ s⁻¹ | 4.69e+07 M⁻¹ | 21.3 nM | 0.000849 s⁻¹ | 39800 M⁻¹ s⁻¹ | 5.89e+08 M⁻¹ | 1.7 nM | 0.000107 s⁻¹ | 62900 M⁻¹ s⁻¹ | Binding signal (RU) (Human IgG1 [5]): 1570 RU; Binding signal (RU) (Human IgG2 [6]): 795 RU; Binding signal (RU) (Human IgG3 [7]): 499 RU; Binding signal (RU) (Human IgG4 [8]): 710 RU; Binding signal (RU) (Rat IgG1a): 431 RU; Binding signal (RU) (Rat IgG2a): 444 RU; Binding signal (RU) (Rat IgG2b): 512 RU; Binding signal (RU) (Rat IgG2c): 2130 RU; Binding signal (RU) (Mouse IgG 1): 1610 RU; Binding signal (RU) (Mouse IgG2a): 427 RU; Binding signal (RU) (Guinea IgG): 577 RU; Binding signal (RU) (Chicken IgG): -3.1 RU | B3
